± gives the uncertainty stated by the source.
assay: amyloid nucleation score (Sup35N fusion, yeast selection) (log enrichment); library NNK2; higher = more nucleation; inactive = no reads after selection
How it was run: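 Nucleation score is defined as the DiMSum log enrichment of output over input reads, with centring on the mode score of non-aggregating sequences. A minimum of 100 input reads was required for each sequence. Reads came from Illumina sequencing of plasmid inserts from psi-negative yeast expressing Sup35N fused to peptides of 20 random codons, induced with 100 μM copper sulfate for 24 hours and grown 7 days at 30°C on medium lacking adenine and uracil.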

Row | Substance | amyloid nucleation score
1 | NYCRVDLHSYKCYVVCSMFM | 4.76 ± 0.11
2 | NYCYLFLTYCWVQRMSEGFS | 2.88 ± 0.098
3 | NYFVNSI | inactive
4 | NYGGPMVNDAFVCTLAGPV | inactive
5 | NYGSSRLAPVHNT | 3.17 ± 0.12
6 | NYGSTLVDWRVRFTRTRTWS | 0.503 ± 0.3
7 | NYILRQAGEMFGLLGDFGDG | -0.165 ± 0.45
8 | NYIVVARFYSRVVFFRV | inactive
9 | NYKYINVHGGYVSCLKREEE | inactive
10 | NYLDLFTRVWKS | inactive
11 | NYLQCWVFGRESMSLYKIWL | -0.081 ± 1.1
12 | NYLRYLLMDSHMRLMDRWKQ | 4.87 ± 0.069
13 | NYLYHLPYLRTSVLRRLRPV | 0.426 ± 0.3
14 | NYRRGEKNGVDVNLASKQCT | 0.86 ± 0.46
15 | NYSIFDWTCSSKMSIITCAK | 5.697 ± 0.029
16 | NYTWGEIYGH | -1.2 ± 0.79
17 | NYVYSTCYALDQCQFKYNVQ | 0.655 ± 0.26
18 | NYYINDADGRLLARWLYKLF | -0.865 ± 0.25
19 | NYYYIVLLYRSLLLMS | -0.265 ± 0.41
20 | PACYKDYGSKSPHPPTVGLG | -0.159 ± 0.76
21 | PAFQCMVQMKPGLWVV | -0.456 ± 0.78
22 | PAFVYHFYQYNLTICYGYLG | -0.313 ± 0.5
23 | PCIGSQFFYSFGGLIK | -0.736 ± 0.35
24 | PCSLLKNWYIEAYTALQNIG | 0.383 ± 0.74
25 | PCSWPNPHLRIGFRLKSPPP | 4.34 ± 0.076

Row | Substance | amyloid nucleation score
26 | PCTVHASNRTLGHRVKSCSV | -0.515 ± 1.1
27 | PCWLNGWERFHIWRFNGSVR | -0.281 ± 0.37
28 | PDGSASIGGYYGQFLL | -0.746 ± 0.62
29 | PDIYLYFLKKVMRS | -1.57 ± 1.1
30 | PDPLWGRPFYIWIMELGSRK | 2.32 ± 0.13
31 | PDWLCEVKRIYELIGYMALI | 0.41 ± 0.41
32 | PESGGNAIFAHERMQLGRRS | 0.92 ± 0.57
33 | PFCPFSEAVWMSTITLQHEG | -0.054 ± 0.32
34 | PFSYFRWWPYRILAWSTWLV | 4.89 ± 0.061
35 | PFVTK | 0.259 ± 0.29
36 | PFVVNVAGLKMSVRV | 3.71 ± 0.07
37 | PGSTRAFIMAVWGAPTEWER | 2.86 ± 0.16
38 | PHKSAGGRLSMFGAKHGDMV | 0.822 ± 0.49
39 | PIFLFQRYPLLGLWLKKACD | inactive
40 | PIIFSLSTFSCNVYEIRSNG | 3.57 ± 0.093
41 | PIIIDDLMYLGDVDLTMFGE | -0.234 ± 0.74
42 | PILYGSNGVRFV | -1.05 ± 1.1
43 | PKSLCYSTLTRGWCQM | -0.418 ± 1
44 | PLIYLSSFYIDCHLWSSFGV | 6.806 ± 0.035
45 | PLNSMNVAESESYGLSQMS | 1.28 ± 0.37
46 | PLTNSNRPGMKHLSSKQSSV | 0.138 ± 0.41
47 | PLVTWHFS | 0.413 ± 0.31
48 | PLWCSAGALLYWYKYPWFWL | -0.332 ± 0.63
49 | PLYPLCSHPYVGFVTHTISR | -0.053 ± 1
50 | PMMYQRLCIMFFCSTITLMI | 1.92 ± 0.14

Row | Substance | amyloid nucleation score
51 | PMSDMFYFFGFECSRLIMSN | inactive
52 | PNLIGLLVGLRVNSWSVAIT | 0.632 ± 0.21
53 | PNPRPVSICNRLYPF | -0.246 ± 0.38
54 | PNQISNA | -0.47 ± 1.1
55 | PPDNVSNWYVVKWAGRMMQK | 4.13 ± 0.044
56 | PPRGFFVAWIVDFRGAGLMG | -0.743 ± 0.48
57 | PPVLLISKSSFMQLGCSLST | -0.587 ± 1
58 | PQWWRNLLSKSGTNAADCYL | 0.577 ± 0.57
59 | PRILLQSLRI | 2.47 ± 0.064
60 | PRRVDRW | 0.339 ± 0.2
61 | PRSSAVYIRTLRVSQKVDPM | 2.64 ± 0.11
62 | PRVVGGFANISMWLATGTPF | 2.94 ± 0.093
63 | PRVVYNFLNWGIGFYFVVDD | 7.161 ± 0.027
64 | PSCRWKLHEMSTSSVQFWMK | 5.59 ± 0.064
65 | PSFILIFNGCKWVPYASKCG | 8.916 ± 0.021
66 | PSGPSHIYGWYDSFHNCSYN | -0.369 ± 0.49
67 | PSHFVGFCAHSYDVGVFMWV | 0.077 ± 0.42
68 | PSLAKRGVSVCLAKANSRTI | -0.388 ± 1
69 | PSLMHSHLESNNTSA | -0.21 ± 0.44
70 | PSSFNSRFFCLVTNGWQYMS | inactive
71 | PSSGPPNESAMSPITYSGEG | -0.684 ± 1.1
72 | PSTIGQYITR | -0.119 ± 0.49
73 | PSTYWRMILKFRVCEIVHGT | 0.231 ± 0.21
74 | PSWHI | -0.193 ± 0.47
75 | PSYMFITVLYLQTEFGFDDT | 3.82 ± 0.074

Row | Substance | amyloid nucleation score
76 | PSYPSVSRVK | 0.151 ± 0.24
77 | PTCGNSPMVRWCSAETFVWG | 3.04 ± 0.13
78 | PTGNQLKKCVDKCGGRSGGE | inactive
79 | PVKPDSVGVRSIMGIVFGYR | 2.94 ± 0.051
80 | PVRCMIAHNCLIFWLVWTVV | -0.154 ± 0.25
81 | PVRGE | 0.089 ± 0.8
82 | PVRRRGNLFIRRLLSFEKKL | inactive
83 | PWALTFNHCKIDDTKRGHIV | 0.64 ± 0.8
84 | PWHDEVVVSNQVYTYMGPSS | 0.074 ± 0.3
85 | PWLDIFNVACTSRGSLVWYE | -0.855 ± 1.1
86 | PWWLWVGSMYENYGFAPFWV | -0.969 ± 0.3
87 | PYILRFRRDLRGFRI | 0.449 ± 0.56
88 | PYISWGSTGFVNAGRY | 3.74 ± 0.072
89 | PYLGRFFSCLYTEWDTP | inactive
90 | PYTFQYY | -0.549 ± 0.26
91 | QACRSTGNSFVLNRYMKERT | 0.215 ± 0.24
92 | QAPLWENSVSVPRLWWNSLS | -0.342 ± 1.1
93 | QASSGSKDLD | 0.102 ± 0.23
94 | QEMYALACHVLTCCNLRNKR | 9.866 ± 0.034
95 | QEVELGMGPKRGETVKEVDL | 0.098 ± 0.22
96 | QFAYTRSSPVKIYLYNNYGA | 8.109 ± 0.037
97 | QFDWDRVYMFSTLPFCIWWV | -0.783 ± 0.35
98 | QFEVNNLTPIGEEGGPKDCP | 0.759 ± 0.43
99 | QFHFK | 0.036 ± 0.35
100 | QFSLLTKYTNVHILGSEEFG | 0.388 ± 0.36

Row | Substance | amyloid nucleation score
101 | QFSSLVFAEEKMNPRMCMVR | -0.294 ± 0.2
102 | QGSNRACGLSEDCLFTV | 0.282 ± 0.22
103 | QHRMDTDTNYFDKDVGHFIS | -0.984 ± 0.32
104 | QIDYRLIVGRSG | 0.32 ± 0.74
105 | QIRAPHGGYVYYAGVATYSN | -0.206 ± 1.1
106 | QIVWLHCLFRRFSNGATSDD | -0.122 ± 0.23
107 | QKHPGFKYHQNLRLVSLSKR | -0.837 ± 0.45
108 | QKRRDFVVHCIRELWFYEHD | inactive
109 | QKTRLSPVYHVGNSGLSPSV | 0.29 ± 0.77
110 | QLFGFGYVLVV | -1.12 ± 0.78
111 | QLGRVSHRVTDRIFWKAYPA | 0.353 ± 0.35
112 | QLNVSLNRLFLCGGSAELPS | 7.55 ± 0.076
113 | QMAINAGRRRRHAEYGLRNS | 0.684 ± 0.57
114 | QMSLAGRG | inactive
115 | QMVGWSMYWIKVMRISA | 0.105 ± 1.1
116 | QNIKIW | -1.02 ± 0.55
117 | QPAVQGITRRKVCWVIMQNA | 0.336 ± 0.46
118 | QRDHWNAALCKVLLLSGLLR | 0.057 ± 0.33
119 | QRRQVDSVM | 1.27 ± 0.27
120 | QSAFNN | inactive
121 | QSKYVSDPSPPETR | 1.48 ± 0.32
122 | QSRDKYLKFRPSLWATEMTW | -0.127 ± 0.31
123 | QSSNLMGL | -0.338 ± 0.39
124 | QSSYVATWVTLNLGCYFDWK | 0.284 ± 1.1
125 | QSTYCQRRCVC | 0.042 ± 0.63

Row | Substance | amyloid nucleation score
126 | QSVYMFRKNNDFPRGTAGSQ | -0.883 ± 1.1
127 | QTNGGEGQ | 0.705 ± 0.24
128 | QTVTCHNNRYVFRLSTMC | 0.71 ± 0.41
129 | QVSFEFNRLMGCMLKMTMMT | -0.308 ± 0.49
130 | QWIWSHSNHNSWIPGSGVVD | -1.13 ± 0.76
131 | QWNMRAAQCTTNS | 0.722 ± 0.34
132 | QYGHCAPDFGSTLLGISST | -0.601 ± 0.39
133 | QYVLLTLCVRIIHGSND | inactive
134 | QYVPVLGPACMQLMRYNCAD | -0.177 ± 0.4
135 | QYYVGYLT | -0.738 ± 0.61
136 | RACADGTSEPNAVALCLNAV | 0.832 ± 0.43
137 | RADTRFVAMGFGCRNVKPAV | -0.296 ± 0.54
138 | RALLW | -0.094 ± 1
139 | RAQRLP | -0.241 ± 0.55
140 | RARARHDLRGQRKVLRDRRF | 0.849 ± 0.5
141 | RARGIV | -0.664 ± 0.55
142 | RARIWALGYSLEEIRRGLED | 3.19 ± 0.11
143 | RAWETNFRVTTLDCNNYSSS | inactive
144 | RAWKSPYCLNTRMSTEGHEY | 0.348 ± 0.48
145 | RAYFTSKMCIRQTWTEKILY | 5.13 ± 0.052
146 | RCDLWLSYCQPLNVFLYWLV | 0.313 ± 0.65
147 | RCGASSCNRLGPPMLNNRAM | -1.6 ± 0.75
148 | RCGEVRYPCTDVYILGFRSV | -0.437 ± 0.63
149 | RCGSHMNLRYISAR | 4.398 ± 0.04
150 | RCPRSKLVIMDRASVLEGGR | 0.559 ± 0.32

Row | Substance | amyloid nucleation score
151 | RCSDRKRRFSYSNWYGHGYG | -0.448 ± 0.48
152 | RCTGVMPV | -0.072 ± 1.1
153 | RCVSRTR | 0.147 ± 1.1
154 | RCYVFKLSFGDTQCELFRIT | 6.406 ± 0.049
155 | RDARNKFCDGLTVGILGACM | -0.368 ± 0.29
156 | RDFVE | -0.386 ± 0.56
157 | RDHLFCG | 0.654 ± 0.16
158 | RDIFILSLLDRMSEGTKRIR | 3.86 ± 0.076
159 | RDIGKYRMYDLTKVRAITLT | -0.353 ± 0.35
160 | RDLARTMI | 1.67 ± 0.34
161 | RDMHLGRTEFVARYWELFRY | -0.473 ± 0.78
162 | RDMWKVNHGNTACIGSYRSV | 0.671 ± 0.35
163 | RDRRASYLVVASPTAGLHMV | 3.34 ± 0.078
164 | RDSVCMTRLDMGLDCEWVFG | 1.57 ± 0.36
165 | REAMTCIFDLKYAGLASVWW | -0.532 ± 1
166 | RERVFIGNGWTRLSRARGQA | -1.15 ± 0.62
167 | REVLWCLPDQGELPGGVTFG | 2.44 ± 0.08
168 | REVTNLYVVGGSDCTLIGGM | 3.75 ± 0.097
169 | RFCGVVLSHSSD | 7.913 ± 0.03
170 | RFDWVA | -0.038 ± 0.45
